According to patent publication US20100196266A1 (published 2010):

How the values were obtained:
[1] = biological target: T1, human leukocyte antigen-DR (HLA-DR) on human lymphoma and leukemia cell lines and human lymphocytes (human); test: flow cytometry, HC-1 (hairy cell leukemia) cells; no mAb 4.8
[2] = biological target: T1, human leukocyte antigen-DR (HLA-DR) on …; test: flow cytometry, RS4;11 (ALL) cells; no mAb 6.4
[3] = biological target: T1, human leukocyte antigen-DR (HLA-DR) on …; test: indirect flow cytometry, Namalwa cells, FITC-GAM; none 2.91
[4] = biological target: T1, human leukocyte antigen-DR (HLA-DR) on …; test: flow cytometry, Jeko-1 (MCL) cells; no mAb 14.3
[5] = biological target: T1, human leukocyte antigen-DR (HLA-DR) on …; test: flow cytometry, K562 (CML) cells; no mAb 3.2
[6] = biological target: T1, human leukocyte antigen-DR (HLA-DR) on …; test: flow cytometry, WAC (CLL) cells; no mAb 15.8
[7] = biological target: T1, human leukocyte antigen-DR (HLA-DR) on …; test: flow cytometry, 697 (ALL) cells; no mAb 4.9
[8] = biological target: T1, human leukocyte antigen-DR (HLA-DR) on …; test: flow cytometry, Kasumi-3 (AML) cells; no mAb 9.6
[9] = biological target: T1, human leukocyte antigen-DR (HLA-DR) on …; test: flow cytometry, GDM-1 (AML) cells; no mAb 16.8
[10] = biological target: T1, human leukocyte antigen-DR (HLA-DR) on …; test: flow cytometry, Granta-519 (MCL) cells; no mAb 15.3
[11] = biological target: T1, human leukocyte antigen-DR (HLA-DR) on …; test: flow cytometry, MEC-1 (CLL) cells; no mAb 4.7
[12] = biological target: T1, human leukocyte antigen-DR (HLA-DR) on …; test: flow cytometry, Kasumi-1 (AML) cells; no mAb 18.2
[13] = biological target: T1, human leukocyte antigen-DR (HLA-DR) on …; test: flow cytometry, MN60 (ALL) cells; no mAb 8.1
[14] = biological target: T1, human leukocyte antigen-DR (HLA-DR) on …; test: flow cytometry, REH (ALL) cells; no mAb 3.9
human CD74 on cells [15] = biological target: T2, human CD74 on cells (human, UniProt P04233 1-296); test: flow cytometry, HC-1 (hairy cell leukemia) cells; no mAb 4.8
T2 construct: whole, on cells
T2 sequence (looked up): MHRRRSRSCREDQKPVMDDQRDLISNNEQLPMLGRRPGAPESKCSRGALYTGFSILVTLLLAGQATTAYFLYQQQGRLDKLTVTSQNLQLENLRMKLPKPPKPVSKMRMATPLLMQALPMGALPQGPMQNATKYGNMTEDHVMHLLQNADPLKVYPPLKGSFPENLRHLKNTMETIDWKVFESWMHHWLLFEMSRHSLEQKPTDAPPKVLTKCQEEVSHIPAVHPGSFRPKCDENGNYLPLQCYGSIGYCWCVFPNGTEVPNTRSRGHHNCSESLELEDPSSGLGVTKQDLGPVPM

human CD74 on cells [16] = biological target: T2, human CD74 on cells; test: flow cytometry, RS4;11 (ALL) cells; no mAb 6.4
human CD74 on cells [17] = biological target: T2, human CD74 on cells; test: indirect flow cytometry, Namalwa cells, FITC-GAM; none 2.91
human CD74 on cells [18] = biological target: T2, human CD74 on cells; test: flow cytometry, Jeko-1 (MCL) cells; no mAb 14.3
human CD74 on cells [19] = biological target: T2, human CD74 on cells; test: flow cytometry, K562 (CML) cells; no mAb 3.2
human CD74 on cells [20] = biological target: T2, human CD74 on cells; test: flow cytometry, WAC (CLL) cells; no mAb 15.8
human CD74 on cells [21] = biological target: T2, human CD74 on cells; test: flow cytometry, 697 (ALL) cells; no mAb 4.9
human CD74 on cells [22] = biological target: T2, human CD74 on cells; test: flow cytometry, Kasumi-3 (AML) cells; no mAb 9.6
human CD74 on cells [23] = biological target: T2, human CD74 on cells; test: flow cytometry, GDM-1 (AML) cells; no mAb 16.8
human CD74 on cells [24] = biological target: T2, human CD74 on cells; test: flow cytometry, Granta-519 (MCL) cells; no mAb 15.3
human CD74 on cells [25] = biological target: T2, human CD74 on cells; test: flow cytometry, MEC-1 (CLL) cells; no mAb 4.7
human CD74 on cells [26] = biological target: T2, human CD74 on cells; test: flow cytometry, Kasumi-1 (AML) cells; no mAb 18.2
human CD74 on cells [27] = biological target: T2, human CD74 on cells; test: flow cytometry, MN60 (ALL) cells; no mAb 8.1
human CD74 on cells [28] = biological target: T2, human CD74 on cells; test: flow cytometry, REH (ALL) cells; no mAb 3.9
human CD22 on cells [29] = biological target: T3, human CD22 on cells (human, UniProt P20273 20-847); test: flow cytometry, HC-1 (hairy cell leukemia) cells; no mAb 4.8
T3 construct: whole, on cells

human CD22 on cells [30] = biological target: T3, human CD22 on cells; test: flow cytometry, RS4;11 (ALL) cells; no mAb 6.4
human CD22 on cells [31] = biological target: T3, human CD22 on cells; test: indirect flow cytometry, Namalwa cells, FITC-GAM; none 2.91
human CD22 on cells [32] = biological target: T3, human CD22 on cells; test: flow cytometry, Jeko-1 (MCL) cells; no mAb 14.3
human CD22 on cells [33] = biological target: T3, human CD22 on cells; test: flow cytometry, K562 (CML) cells; no mAb 3.2
human CD22 on cells [34] = biological target: T3, human CD22 on cells; test: flow cytometry, WAC (CLL) cells; no mAb 15.8
human CD22 on cells [35] = biological target: T3, human CD22 on cells; test: flow cytometry, 697 (ALL) cells; no mAb 4.9
human CD22 on cells [36] = biological target: T3, human CD22 on cells; test: flow cytometry, Kasumi-3 (AML) cells; no mAb 9.6
human CD22 on cells [37] = biological target: T3, human CD22 on cells; test: flow cytometry, GDM-1 (AML) cells; no mAb 16.8
human CD22 on cells [38] = biological target: T3, human CD22 on cells; test: flow cytometry, Granta-519 (MCL) cells; no mAb 15.3
human CD22 on cells [39] = biological target: T3, human CD22 on cells; test: flow cytometry, MEC-1 (CLL) cells; no mAb 4.7
human CD22 on cells [40] = biological target: T3, human CD22 on cells; test: flow cytometry, Kasumi-1 (AML) cells; no mAb 18.2
human CD22 on cells [41] = biological target: T3, human CD22 on cells; test: flow cytometry, MN60 (ALL) cells; no mAb 8.1
human CD22 on cells [42] = biological target: T3, human CD22 on cells; test: flow cytometry, REH (ALL) cells; no mAb 3.9
human CD20 on cells = biological target: T4, human CD20 on cells (human, UniProt P11836 1-297); test: indirect flow cytometry, Namalwa cells, FITC-GAM; none 2.91
T4 construct: whole, on cells
T4 sequence (looked up): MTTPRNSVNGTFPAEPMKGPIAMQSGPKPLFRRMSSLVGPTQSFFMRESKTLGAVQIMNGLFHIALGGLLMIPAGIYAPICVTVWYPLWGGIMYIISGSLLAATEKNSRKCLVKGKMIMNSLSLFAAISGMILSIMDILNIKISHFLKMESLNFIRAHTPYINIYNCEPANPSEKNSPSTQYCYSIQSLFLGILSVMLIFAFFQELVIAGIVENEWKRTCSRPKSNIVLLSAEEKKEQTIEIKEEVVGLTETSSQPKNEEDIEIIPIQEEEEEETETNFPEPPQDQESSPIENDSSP

B1: murine monoclonal antibody L243 (mL243) (antibody, V domains shown)
VH: QIQLVQSGPELKKPGETVKISCKASGFTFTNYGMNWVKQAPGKGLKWMGWINTYTREPTYADDFKGRFAFSLETSASTAYLQINNLKNEDTAKYFCARDITAVVPTGFDYWGQGTTLTVSS
VL: DIQMTQSPASLSVSVGETVTITCRASENIYSNLAWYRQKQGKSPQLLVFAASNLADGVPSRFSGSGSGTQYSLKINSLQSEDFGDYYCQHFWTTPWAFGGGTNLEIKR
notes: Murine IgG2a from hybridoma ATCC HB55; also called murine L243; mL234
mean FL [1]: 515 | mean FL [2]: 152 | GEO MEAN Fluorescence [3]: 595 | mean FL [4]: 1900 | mean FL [5]: 4.9 | mean FL [6]: 788 | mean FL [7]: 259 | mean FL [8]: 565 | mean FL [9]: 1070 | mean FL [10]: 2110 | mean FL [11]: 1700 | mean FL [12]: 24 | mean FL [13]: 1220 | mean FL [14]: 2090

B2: murine LL1 (anti-human CD74) (antibody, V domains shown)
VH: QIQLVQSGPELKKPGETVKVTCKTSGYTFTNYGVNWIKQTPGEGLQWMGWINPNTGEPTFDDDFKGRFAFSLESSASTAFLQISNLKNEDMGTYFCSRSRGKNEAWFAYWGQGTLVTVSE
VL: DVVMTQTPLSLPVSLGDQASISCRSSQSLVHRNGNTYLHWYLQKPGQSPKLLIYTVSNRFSGVPDRFSGSGSGTDFTLKISRVEAEDLGLYFCSQSSHVPPTFGAGTKLEI
mean FL (human CD74 on cells [15]): 36.7 | mean FL (human CD74 on cells [16]): 24.3 | GEO MEAN Fluorescence (human CD74 on cells [17]): 17.3 | mean FL (human CD74 on cells [18]): 32.7 | mean FL (human CD74 on cells [19]): 7 | mean FL (human CD74 on cells [20]): 43.6 | mean FL (human CD74 on cells [21]): 20.6 | mean FL (human CD74 on cells [22]): 18.4 | mean FL (human CD74 on cells [23]): 69.5 | mean FL (human CD74 on cells [24]): 50.8 | mean FL (human CD74 on cells [25]): 44.7 | mean FL (human CD74 on cells [26]): 23.8 | mean FL (human CD74 on cells [27]): 25.9 | mean FL (human CD74 on cells [28]): 61.1

B3: murine LL2 (anti-human CD22) (antibody, V domains shown)
VH: QVQLQESGAELSKPGASVKMSCKASGYTFTSYWLHWIKQRPGQGLEWIGYINPRNDYTEYNQNFKDKATLTADKSSSTAYMQLSSLTSEDSAVYYCARRDITTFYWGQGTTLTVSS
VL: DIQLTQSPSSLAVSAGENVTMSCKSSQSVLYSANHKNYLAWYQQKPGQSPKLLIYWASTRESGVPDRFTGSGSGTDFTLTISRVQVEDLAIYYCHQYLSSWTFGGGTKLEIKR
mean FL (human CD22 on cells [29]): 17.8 | mean FL (human CD22 on cells [30]): 20.9 | GEO MEAN Fluorescence (human CD22 on cells [31]): 10.5 | mean FL (human CD22 on cells [32]): 25 | mean FL (human CD22 on cells [33]): 4.3 | mean FL (human CD22 on cells [34]): 20.1 | mean FL (human CD22 on cells [35]): 15.9 | mean FL (human CD22 on cells [36]): 13.9 | mean FL (human CD22 on cells [37]): 28.5 | mean FL (human CD22 on cells [38]): 28.6 | mean FL (human CD22 on cells [39]): 49 | mean FL (human CD22 on cells [40]): 20.9 | mean FL (human CD22 on cells [41]): 17.1 | mean FL (human CD22 on cells [42]): 16.8

B4: 1F5 (murine anti-CD20 mAb) (antibody, V domains shown)
VH: QVQLRQPGAELVKPGASVKMSCKASGYTFTSYNMHWVKQTPGQGLEWIGAIYPGNGDTSYNQKFKGKATLTADKSSSTAYMQLSSLTSEDSAVYYCARSHYGSNYVDYFDYWGQGTTLTVSS
VL: DIVLSQSPAILSASPGEKVTMTCRASSSLSFMHWYQQKPGSSPKPWIYATSNLASGVPARFSGSGSGTSYSLTISRVEAEDAATYFCHQWSSNPLTFGAGTKLELK
GEO MEAN Fluorescence (human CD20 on cells): 3.83
